The text below walks through data of the DeepSol protein solubility set.

This data set can be described thus: soluble on expression in E. coli; label from the status in PepcDB or PDB records.
In the case of “MKGVNQQKKRLKVMTPLEKYQQDLNQEGFMHDSAQRNAVEHLDDLYRRFLELKVPEEPAKKSWKRFFKKEKPQKLTPEKGLYFWGGVGRGKTYLVDTFYDALPTERKMRIHFHRFMQRVHDELGELKQQSDPLLIVADKFKQETDIICFDEFFVSDITDAMILATLLEALFARGITLVATSNILPQDLYRNGLQRARFLPAISLIEQHCDIINVDSGVDYRLRTLEQAEIYHYPLDSDAETNMKGYFLQLASGCDYESTQIEINHRLIEVKAEGDGVVHFDFASLCESARSQHDYIELSRLYHTVLLSNVKIMGEVNDDAARRFIAMVDEFYERNVKLIISAEVDLTSIYQKGRLTFEFQRCQSRLIEMQSHEYLSKEHLSLEHHHHHH”, the “soluble on expression in E. coli” value is on record as “not soluble”. For the sequence “MENSFELMAREWHKNKADRWSLRYREEIIDTFEKDIFPFIGRRPIADIKPMELLETLKRMEKRGALEKMRKVRQRCGEVFRYAIITGRAEYNPAPDLAGALQTHKKQHLPLEHHHHHH”, the “soluble on expression in E. coli” value is “not soluble”. “MSLDIILDQPEQMLFALLRSALNSTKPVSEILFTDISPALWQACYRLACTQGVMALAWDGIQTLPACLQPPKALKLNWAMAVENYEKRYLRYCHTIAELSAFYKTHGITTVQLKGVGLSTYYPIPSHREGGDIDIFTYSADHSRKSDAEANRLADRLMEEKGIEVDFEHSEKHSMFYYKGIPIENHKTFINSETYRIAVKMDKLLQKLLQPVSAELDGKCSILIPSSTFNTVFLAFHAAQHYARGLALHHLCDWACLLNRYDLHIPEEVTDIRFRNMILAMTRLCNDYLGTSVPVYGGEELAEEILREIIRPPYTMSVPAKNKWGILVYKTKRMLHTHRACNSVLRISLCKWVGNSILLHLRSPHTIFQTEREGHHHHHH”: the “soluble on expression in E. coli” value is “soluble”. With “SNDLSQWSISKDSNLDSPWIEGIPGCGIPGAGSLVEHIDRQILVLQRDGRYIVGLLRSYDQYANLVLENTFERFVLNDSYCDEPLGVFIIRGENVALLGEVDGEKESQWLSHLHTVSLEDTKKTIRGKRQATKALLHSQPERVEWTFYDDAFF”, the “soluble on expression in E. coli” value is “soluble”. “SYELTQPPSVSVAPGQTARISCSGDNIGGTFVSWYQQKPGQAPVLVIYDDNDRPSGIPERFSGSNSGNTATLTISGTQAEDEADYYCGTWDMVTNNVFGGGTKLTVLGQPKAAPSVTLFPPSSEELQANKATLVCLISDFYPGAVTVAWKADSSPVKAGVETTTPSKQSNNKYAASSYLSLTPEQWKSHRSYSCQVTHEGSTVEKTVAPTECS”: the “soluble on expression in E. coli” value is “soluble”.

As to “GPGSMGYRLLRDNVFKASCAKDSDELRARREPTMLYKEDQLVAPASGTERRYTLVLDLDETVIYAREGPLYARAYLKELLSFIRKNFEVIVWTAGEREYAECILEEINIRNTVRHLIHRHKTWFSFDDYTKDLTKLGRNLDYVIIIENSPDCVRTNPQNGIIVDDFRVSQTPPMEEAEAAWEGDGNNRERKAGSRSDSKTRRQVTDRTLLLLREVLKAMVESGETVPDFLAKCPLLTQRRVIGSDGSQIQTYHLGTRRKRGIPQLCASSPKRRRVTKESAPGATCTS”, the “soluble on expression in E. coli” value is “soluble”. In the case of “MGSDKIHHHHHHSRSTQGVRSLGFYNRHTGERGQGSYWIDGDYQTNTLNDFNHLLRDHRQNETAPMDKRLFDLLFSLKQTLQVDEDFHVISGYRSPKTNQMLANRSSAVAKKSYHMKGMAMDIALPDVNLKDLRDAAISLKLGGVGYYPSSGFVHVDTGPIRTW”, the “soluble on expression in E. coli” value is given as “not soluble”. For the sequence “MFIGYKSSKSKKILIMNSKGGAGKSSLTMAMARLFSSKNIKTELIDLDPQNTSYFWGGNNKEIRTQTFLTSSRVPFSLALKLELDTELTIIDTPSNFNKFELDKYLSLADKIILPLQASPIDLHSILGFIKNLIASPVYKKRNIPVCFVITRYKGRVGDLELMHRVLNKLKYPIIGVMSESDAYQSLFIDEDVKVFQYLDKNLWVEIERWINI”, the “soluble on expression in E. coli” value is on record as “not soluble”. On to “DRLGQPPSGYGVLLSVHEDKTVDVFTSGRKMRLTCSPNIDTDTLALGQTVRLNEALTIVEAGTYEQVGEISTLREVLDDGLRALVVGHADEERIVWLAAPLAAVFADPEADIIAYDADSPTRKLRPGDSLLVDTKAGYAFERIPKAEVEDLVL”, for which the “soluble on expression in E. coli” value is recorded as “soluble”. “MIQSGKIYIRGRTVVFMIIRNEQDLEGLRKIGRIVALAREEMKKEAKPGMTTKELDLIGKKVLDEHGAISAPEKEYDFPGVTCISVNEEVAHGIPGDRVLKEGDLVNVDVSAALDGYYADTGISFVLGEDEAKEKLCQAAVDAFWAAMKKVKAGSKQNQIGRAVSNFAHKNGYNVIQNLTGHGIGLSLHEAPNHILSYFDPMDNALLKDGLVIAVEPFISMKADHIIERGDDGWTFVTPDKSLVAQCEHTVVVTRGEPIILTEI”: the “soluble on expression in E. coli” value is on record as “soluble”.
